Data on 1 molecule can be found in paper PMC11811199 (EMBO Reports, 2024).

The target in the experiment is T1, DYRK4-His (UniProt Q9NR20 1-520).
T1 construct: also called recombinant DYRK4; pET30a-DYRK4-his; not shown: His, C-terminal, kept
T1 sequence (looked up): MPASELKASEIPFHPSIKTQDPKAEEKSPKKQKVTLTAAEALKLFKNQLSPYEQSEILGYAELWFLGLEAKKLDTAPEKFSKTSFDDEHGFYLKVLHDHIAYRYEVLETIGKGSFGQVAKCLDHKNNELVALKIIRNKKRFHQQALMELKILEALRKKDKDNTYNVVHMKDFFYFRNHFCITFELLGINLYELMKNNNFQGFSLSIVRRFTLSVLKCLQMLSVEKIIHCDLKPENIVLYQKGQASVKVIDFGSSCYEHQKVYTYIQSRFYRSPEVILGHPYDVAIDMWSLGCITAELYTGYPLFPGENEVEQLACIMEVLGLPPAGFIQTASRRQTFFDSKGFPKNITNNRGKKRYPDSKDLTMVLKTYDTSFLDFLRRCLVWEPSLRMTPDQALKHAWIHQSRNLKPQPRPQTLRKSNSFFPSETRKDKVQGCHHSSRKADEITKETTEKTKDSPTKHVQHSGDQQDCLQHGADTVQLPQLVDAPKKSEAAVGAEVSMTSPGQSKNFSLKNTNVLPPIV
Nature of the experiment: pull-down. Particulars: both partners purified.

B1: GST-IRF3 (natural protein, UniProt Q14653 1-427, looked up)
chain: MGTPKPRILPWLVSQLDLGQLEGVAWVNKSRTRFRIPWKHGLRQDAQQEDFGIFQAWAEATGAYVPGRDKPDLPTWKRNFRSALNRKEGLRLAEDRSKDPHDPHKIYEFVNSGVGDFSQPDTSPDTNGGGSTSDTQEDILDELLGNMVLAPLPDPGPPSLAVAPEPCPQPLRSPSLDNPTPFPNLGPSENPLKRLLVPGEEWEFEVTAFYRGRQVFQQTISCPEGLRLVGSEVGDRTLPGWPVTLPDPGMSLTDRGVMSYVRHVLSCLGGGLALWRAGQWLWAQRLGHCHTYWAVSEELLPNSGHGPDGEVPKDKEGGVFDLGPFIVDLITFTEGSGRSPRYALWFCVGESWPQDQPWTKRLVMVKVVPTCLRALVEMARVGGASSLENTVDLHISNSHPLSLTSDQYKAYLQDLVEGMDFQGPGES
notes: also called pGEX6P-1-GST-IRF3; not shown: GST, N-terminal, kept
Regarding B1, the binding result is “binds”.
